According to patent US6984380B1, “Treatment of diseases involving faulty MHC class I antigen complex presentation” (priority 1991, dated 2006):
Where no end group is shown, it is not given here.

Columns and labels:
[1] = molecular target: T1, H-2K^d class I molecule on NOD splenocytes (Mus musculus, UniProt P01902); assay type: cell-based
T1 construct: Female NOD splenocytes were cultured with a K^d allele-specific peptide in an attempt to load the empty peptide groove of this class I molecule; endogenous in cells; host or cells: primary splenocytes (macrophage/monocyte and lymphocyte gates) from female NOD mice and control B10.D2 (R103) mice
T1 sequence (P01902 22-368): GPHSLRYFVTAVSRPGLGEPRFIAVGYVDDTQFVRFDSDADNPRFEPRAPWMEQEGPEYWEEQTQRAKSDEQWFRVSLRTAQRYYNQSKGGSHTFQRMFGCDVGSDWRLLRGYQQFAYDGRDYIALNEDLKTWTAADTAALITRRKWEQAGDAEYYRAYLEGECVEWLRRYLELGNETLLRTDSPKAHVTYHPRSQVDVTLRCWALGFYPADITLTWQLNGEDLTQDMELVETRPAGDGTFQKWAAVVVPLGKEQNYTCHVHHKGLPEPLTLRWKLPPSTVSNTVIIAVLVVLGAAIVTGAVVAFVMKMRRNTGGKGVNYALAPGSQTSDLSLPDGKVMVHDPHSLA
T1 sequence (P01887 21-119 partner): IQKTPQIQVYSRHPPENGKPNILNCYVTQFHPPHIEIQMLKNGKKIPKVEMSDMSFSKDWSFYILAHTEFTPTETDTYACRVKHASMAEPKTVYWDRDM

[2] = test system: H-2K^d target cells

TYQRTRALV [K^d-specific peptide]
mean fluorescence attributable to K^d ([1]; control class I-identical B10.D2 (R103) splenocytes, peptide 480 μM, 5 hours at 37° C.): no change in mean fluorescence
surface expression of K^d (mean fluorescence, FACS) ([1]; female NOD mouse macrophages, peptide 480 μM, 5-hour incubation at 37° C.): stabilized the surface expression of K^d
dose dependence of restoration and stabilization of K^d expression ([1]; female NOD splenocytes): dose dependent
optimal peptide concentration for restoration and stabilization of K^d expression ([1]; female NOD splenocytes): greater than 240 μM
susceptibility to CTL lysis after incubation with peptide [2]: did restore susceptibility to CTLs
susceptibility to CTL lysis after prior incubation with peptide [2]: Neither the susceptibility of control BALB/c targets nor that of NOD male targets to CTL lysis was affected
